{"source": "patent US20210069339A1", "about": "“CNP PRODRUGS” (ASCENDIS PHARMA GROWTH DISORDERS A/S, priority 2015, published 2021)", "key": {"[1]": {"biological_target": "T1, neutral endopeptidase (NEP) (Homo sapiens, UniProt P08473)", "T1 construct": "purchased Enzo Life Sciences GmbH, Lörrach, Germany", "T1 sequence (P08473 whole entry)": "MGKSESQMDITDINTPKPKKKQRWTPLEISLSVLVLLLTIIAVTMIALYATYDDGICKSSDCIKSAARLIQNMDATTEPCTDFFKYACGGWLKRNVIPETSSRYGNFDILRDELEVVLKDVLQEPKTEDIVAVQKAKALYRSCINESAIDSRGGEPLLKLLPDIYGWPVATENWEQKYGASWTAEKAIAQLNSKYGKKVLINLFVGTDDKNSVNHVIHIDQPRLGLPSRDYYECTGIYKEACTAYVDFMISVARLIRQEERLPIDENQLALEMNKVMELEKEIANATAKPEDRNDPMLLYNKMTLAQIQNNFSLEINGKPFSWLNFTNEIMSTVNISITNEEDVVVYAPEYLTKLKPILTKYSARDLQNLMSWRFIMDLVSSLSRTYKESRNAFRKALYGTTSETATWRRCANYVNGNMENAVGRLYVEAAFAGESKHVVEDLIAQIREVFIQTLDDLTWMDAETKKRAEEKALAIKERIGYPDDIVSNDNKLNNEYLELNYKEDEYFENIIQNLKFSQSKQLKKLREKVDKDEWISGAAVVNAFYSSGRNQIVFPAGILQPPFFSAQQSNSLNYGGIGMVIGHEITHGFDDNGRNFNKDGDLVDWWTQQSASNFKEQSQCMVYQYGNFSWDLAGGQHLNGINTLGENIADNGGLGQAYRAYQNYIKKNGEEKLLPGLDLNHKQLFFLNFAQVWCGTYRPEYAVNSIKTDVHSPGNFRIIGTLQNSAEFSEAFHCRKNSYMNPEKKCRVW", "test": "Digest of CNP variants by Neutral Endopeptidase in vitro", "type": "in vitro ADME", "conditions": "recombinant human neutral endopeptidase (NEP), pH 7.4, read-out: half life norm. (converted)", "description": "Samples were taken at different time intervals. […] The resulting reaction products were assigned using HPLC-MS."}, "[2]": {"conditions": "after intravenous (iv) administration; cited from earlier work"}, "[3]": {"conditions": "in vivo; cited from earlier work"}, "[4]": {"conditions": "animal studies; cited from earlier work"}, "[5]": {"conditions": "doses up to 15 μg/kg, healthy volunteers; cited from earlier work"}}, "note": "Read-outs that look alike come from different tables or passages of the source. Bridges are numbered along the chain shown (N, C = ends). Where no end group is shown, it is not given here.", "data": [{"compound": "CC[C@H](C)[C@@H]1NC(=O)[C@H](CCCNC(=N)N)NC(=O)[C@H](CC(=O)O)NC(=O)[C@H](CC(C)C)NC(=O)[C@H](CCCCN)NC(=O)[C@H](CC(C)C)NC(=O)CNC(=O)[C@H](Cc2ccccc2)NC(=O)[C@@H](NC(=O)CNC(=O)[C@H](CCCCN)NC(=O)[C@H](CO)NC(=O)[C@H](CC(C)C)NC(=O)CN)CSSC[C@@H](C(=O)O)NC(=O)CNC(=O)[C@H](CC(C)C)NC(=O)CNC(=O)[C@H](CO)NC(=O)[C@H](CCSC)NC(=O)[C@H](CO)NC(=O)CNC1=O", "note": "[CNP-22]", "values": [{"measurement": "half-life at 100 μg CNP equivalents/mL", "setting": "[1]", "value": 19.2, "unit": "min"}]}, {"compound": "CNP: C-type natriuretic peptide, as discussed in the background", "values": [{"measurement": "half-life", "setting": "[2]", "value": 2, "unit": "min"}]}, {"compound": "BMN-111: modified recombinant human C-type Natriuretic Peptide where 17 amino acids have been added to form a 39 amino acid CNP pharmacological analog (PGQEHPNARKYKGANKKGLSKGCFGLKLDRIGSMSGLGC; disulfide 23-39; chains of the INN, looked up)", "values": [{"measurement": "half-life", "setting": "[3]", "value": 20, "unit": "min"}, {"measurement": "immunogenicity", "setting": "[4]", "value": "immunological response"}, {"measurement": "cardiovascular effect", "setting": "[5]", "value": "mild hypotension"}]}]}
